The results in this text go back to patent CN114605532A (BEIJING FIRST BIOCHEMICAL PHARMACEUTICAL LTD COMPANY, dated 2022).

The experiment deals with 抗原(bs-0107P). As to the kind of experiment: indirect ELISA, antigen bs-0107P coated at 2 μg/ml (0.2 μg/well), purified antibody in serial dilution, HRP goat anti-mouse IgG, OD450. In general terms: In an ELISA, binding on a coated surface is turned into a signal by an enzyme label.
Chain of 抗原(bs-0107P) (P05067 672-713): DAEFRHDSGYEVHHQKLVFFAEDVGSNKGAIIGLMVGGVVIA

B1: 抗β-淀粉样蛋白单克隆抗体7D10-1E6 (antibody, V domains shown)
VH: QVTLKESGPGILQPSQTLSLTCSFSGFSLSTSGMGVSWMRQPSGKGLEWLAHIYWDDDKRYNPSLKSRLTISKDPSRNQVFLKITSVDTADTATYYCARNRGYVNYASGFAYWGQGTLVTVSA
VL: DVLMTQTPLSLPVSLGDQASISCRSSQSIVHSNGNTYLEWYLQKPGQSPKLLIYKVSNRFSGVPDRFSGSGSGTDFILKINRVEAEDLGVYYCFQGSHVPLTFGAGTKLELK
The term EC50 denotes the concentration needed to bring the measured effect to its halfway point. Read a low EC50 as higher potency in that assay. Turning to B1, the EC50 was 23.7 pM.
